From patent US20210079080A1 (Hoffmann-La Roche, published 2021) come the findings set out here.

Residue numbers refer to the chain shown, from its start.

Assay [1] addresses T1, VEGF-121-His (inhouse production) (human, UniProt P15692 207-395).
T1 construct: His-tagged human VEGF-A121 used in the ELISAs and (captured by an anti-His antibody) in SPR; also called hVEGF-A121; his VEGF; not shown: His tag
T1 sequence: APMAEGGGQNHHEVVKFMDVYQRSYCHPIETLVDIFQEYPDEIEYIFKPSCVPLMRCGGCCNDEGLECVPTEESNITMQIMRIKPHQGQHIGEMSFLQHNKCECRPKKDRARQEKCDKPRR
The assay can be described thus: SPR (Biacore), hVEGF-A121 captured by anti-His antibody, Fab injected, 25° C. The procedure:
(§1) The surface was regenerated by injecting 10 mM Glycine pH 1.5 for 60s. […] Rate constants were calculated using the Langmuir 1:1 binding model within the Biacore® Evaluation software.
(§2) The affinity of the antibodies was determined by SPR using the same methods as described in Example 2. All Fab fragments as listed in table 1 and table 2 were tested.

Assay [2] addresses T1, VEGF-121-His (inhouse production). The assay can be described thus: SPR (Biacore), hVEGF-A121 captured by anti-His antibody, Fab injected, 37° C. The procedure:
as §1, §2

For assay [3] the target is unchanged. Nature of the assay: direct ELISA on plate-coated VEGF-121-His. The procedure: After washing 3 times with 90 μl/well PBST-buffer (bidest water, 10×PBS Roche #11666789001+0.1% Tween® 20) blocking buffer (bidest water, 10×PBS Roche #11666789001+2% Bovine Serum Albumin Fraction V, fatty acid free, Roche, #10735078001+0.05% Tween® 20) was added 90 μl/well and incubated for 1 h at room temperature. […] After incubation for 1 h at room temperature, plates were again washed 3 times with 90 μl/well PBST-buffer. […] After washing 3 times with 90 μl A PBST-buffer, 25 μl TMB (Roche, #11 835 033 001) was added to each well. After 3 min incubation at RT, signals were detected at 370 nm/492 nm on a Tecan Safire 2 Reader.

Assay [4] shares this target. The assay can be described thus: SPR (Biacore), hVEGF-A121 captured by anti-His antibody, Fab injected, 25° C. The method, then: as §1
(§3) The affinity of the antibodies was determined by SPR using the same methods as described in Example 2. All Fab fragments of antibodies of the invention as listed in table 1 and table 5 were tested.
This is another data set of the same source.

For assay [5] the target is unchanged. Nature of the assay: inhibition ELISA: antibody titrated against 0.7 nM VEGF-121-His; blocked partner plate-bound biotinylated VEGF-R2; anti-His POD readout. The procedure:
Plates were incubated for 1 h at room temperature. […] Plates were incubated for 1 h at room temperature. […] After washing 3 times with 90 μl/well PB ST-buffer, 25 μl/well detection antibody (anti His POD, Bethyl, #A190-114P, 1:12000) in 1×OSEP was added. After incubation for 1 h at room temperature plates were washed 3 times with 90 μl PBST-buffer. 25 μl TMB (Roche, #11 835 033 001) was added to all wells simultaneously. After 10 min incubation at room temperature, signals were detected at 370 nm/492 nm on a Tecan Safire 2 Reader.

For assay [6] the target is unchanged. Nature of the assay: SPR (Biacore), hVEGF-A121 captured by anti-His antibody, Fab injected, 37° C. The procedure: as §1, §3
The source holds these as a separate data set.

For assay [7] the target is unchanged. Nature of the assay: Biacore, Fab stressed 2 w/37° C./pH 7.4. The method, then:
(§4) Antibody samples were formulated in 20 mM His/HisCl, 140 mM NaCl, pH 6.0, and were split into three aliquots: one aliquot was re-buffered into PBS, respectively, and two aliquots were kept in the original formulation. The PBS aliquot and one His/HisCl aliquot were incubated for 2 weeks (2 w) at 40° C. (His/NaCl) or 37° C. (PBS) in 1 mg/ml, the PBS sample was incubated further for total 4 weeks (4 w). The third control aliquot sample was stored at −80° C.

For assay [8] the target is unchanged. The assay can be described thus: Biacore, Fab stressed 4 w/37° C./pH 7.4. The method, then:
as §4

Assay [9] has the same target. The assay can be described thus: inhibition ELISA: antibody titrated against 0.4 nM VEGF-121-His; blocked partner plate-bound biotinylated VEGF-R2; anti-His POD readout.
Another assay concerns the target T2, human VEGF-A121 (human, UniProt P15692 207-395).
T2 sequence: T1 sequence
The assay can be described thus: cell-based or functional assay.

Assay [10] addresses T1, VEGF-121-His (inhouse production). The assay can be described thus: Biacore, Fab stressed 2 w/40° C./pH 6.0. The method, then:
as §4

Assay [11] has the same target. Nature of the assay: inhibition ELISA: antibody titrated against 0.7 nM VEGF-121-His; blocked partner plate-bound biotinylated VEGF-R1; anti-His POD readout.

B1: L3H6 Fab fragment (Fab, V domains shown)
VH: QVQLVQSGAEVKKPGESLKISCKGSGYSFTSYWIGWVRQMPGKGLEWMGIIYPGDSDTRYSPSFQGQVTISADKSISTAYLQWSSLKASDTAMYYCARQGTHNRKIWGQGTMVTVSS
VL: QAVVTQEPSLTVSPGGTVTLTCASSTGAVTSGNYPNWFQQRPGQPPRALIYSTSNKHSWTPARFSGSLLGGKAALTLSGAQPEDEAEYYCRLSYDLARPVFGGGTKLTVLG
notes: Prior art antibody disclosed in WO 2012089176, made here as Fab
For the molecule B1, the values for the Kd in assay [1] and in [2] were 3360 pM and 4520 pM, respectively. The “EC50 (read off the curve)” value in assay [3] was roughly 300 pM.

B2: r84 full length IgG1 antibody (antibody, V domains shown)
VH: QVQLVQSGAEVKKPGASVKVSCKASGGTFSSYAISWVRQAPGQGLEWMGGFDPEDGETIYAQKFQGRVTMTEDTSTDTAYMELSSLRSEDTAVYYCATGRSMVRGVIIPFNGMDVWGQGTTVTVSS
VL: not shown
notes: Full length IgG1; also called r84 IgG1
Regarding B2, the binding result in assay [3] is given as “binds”.

B3: r84 Fab fragment (Fab, V domains shown)
VH: B2 VH
VL: not shown
notes: Prior art antibody disclosed in WO 2009060198, made here as Fab
For B3, the binding result in assay [3] is “binds”.

B4: VEGF-0113 Fab fragment (Fab, V domains shown)
VH: EVQLVESGGGLVQPGGSLRLSCAASGFTFTNYAMTWVRQAPGKGLEWVSSIGNGPGIYTYYADSVKGRFTISRDNSKNTLYLQMNSLRAEDTAVYYCAKGDNLFDSWGPGTLVTVSS
VL: DIQMTQSPASLSASVGDRVTITCRASQSIYSSLNWYQQKPGKAPKLLIYASTLQSGVPSRFSGSASGTDFTLTISSLQPEDVATYYCQQYQNFPRTFGQGTKLEIKR
notes: Variant of VEGF-0089 (G to P at position 6 of H-CDR2); Fab with rabbit derived CLkappa and CH1
For B4, the Kd was determined as 21 pM in assay [1], 22 pM in [4], 29 pM in [6] and 17 pM in assay [2]. Further, the “IC50 (read off the curve)” value in [5] was roughly 2000 pM; in assay [9], roughly 200 pM. For the same molecule, the “VEGF-binding activity after stress (relative active concentration, normalized to unstressed aliquot)” value was determined as 103 in assay [7], 101 in assay [8] and 103 in assay [10]. The “IC50 in reporter gene assay (HEK293-NFAT-RE-Luc2P/KDR cells, luminescence, 25 ng/ml VEGF-A121)” value in the assay with human VEGF-A121 came out at 630 pM. For the same molecule, the “EC50 (read off the curve)” value in assay [3] was roughly 300 pM.

B5: VEGF-P1AD8675 Fab fragment (Fab, V domains shown)
VH: B4 VH with P55G, S76W
VL: B4 VL
Consider B5, for which the Kd in [4] came to 88 pM; in assay [6], 65 pM. The “VEGF-binding activity after stress (relative active concentration, normalized to unstressed aliquot)” value in assay [7] was 102; in assay [8], 109; in assay [10], 101.

B6: VEGF-0114 Fab fragment (Fab, V domains shown)
VH: EVQLVESGGGLVQPGGSLRLSCAASGFTFTNYAMTWVRQAPGKGLEWVSSIGSGGFYTYYADSVKGRFTISRDNSKNTLYLQMNSLRAEDTAVYYCAKGDNLFDSWGPGTLVTVSS
VL: B4 VL
notes: Fab with rabbit derived CLkappa and CH1; also called VEGR-0114 Fab
Take B6: the Kd came to 55 pM in assay [1], 50 pM in [4], 54 pM in assay [6] and 56 pM in assay [2]. Besides, the “VEGF-binding activity after stress (relative active concentration, normalized to unstressed aliquot)” value came out at 102 in assay [7], 99 in assay [8] and 99 in assay [10]. Also, in assay [9], the “IC50 (read off the curve)” value is roughly 300 pM. For the same molecule, the “IC50 in reporter gene assay (HEK293-NFAT-RE-Luc2P/KDR cells, luminescence, 25 ng/ml VEGF-A121)” value with human VEGF-A121 is 1340 pM. The “EC50 (read off the curve)” value in assay [3] was roughly 300 pM.

B7: VEGF-P1AE3521 Fab fragment (Fab, V domains shown)
VH: B6 VH with S75W
VL: B4 VL
Take B7: the values for the Kd in assay [4] and in assay [6] were 32 pM and 61 pM, respectively. The “VEGF-binding activity after stress (relative active concentration, normalized to unstressed aliquot)” value in assay [7] came to 103; in [8], 99; in assay [10], 101.

B8: VEGF-P1AE3520 Fab fragment (Fab, V domains shown)
VH: B4 VH with S76W
VL: B4 VL
Regarding B8, the Kd is 31 pM in [4] and 39 pM in assay [6]. Besides, the “VEGF-binding activity after stress (relative active concentration, normalized to unstressed aliquot)” value in assay [7] came to 102; in assay [8], 101; in [10], 100.

B9: HF2-1 Fab fragment (Fab, V domains shown)
VH: EVQLVESGGGLVQPGGSLRLSCAASNFVFRSHGMQWVRQAPGKGLEYVAGISSDGSWTGYGAAVEGRFTISRDDSKNTAYLQMNSLRAEDTAVYYCARDFSTGYGADSIDAWGQGTLVTVSS
VL: DIQMTQSPSSLSASVGDRVTITCSGGSDSAYGYGWYQQKPGKAPKTLIYWDDKRPSGVPSRFSGSRSGTDFTLTISSLQPEDFATYYCGAWEYSGGVGIFGQGTKVEIKR
notes: Prior art antibody disclosed in EP3006465
With B9, the Kd is 279 pM in assay [4] and 574 pM in assay [6].

B10: HF2-11 Fab fragment (Fab, V domains shown)
VH: B9 VH with N26G, V28L, F29I, T58V, G59K, Y60V, G61A
VL: B9 VL with D28S, S29E, A30P, Y31L
notes: as for B9
Turning to B10, the Kd in [4] is 32 pM; in assay [6], 62 pM. Besides, the “IC50 (read off the curve)” value in assay [11] was roughly 1000 pM.

B11: HF2-9 Fab fragment (Fab, V domains shown)
VH: B9 VH with N26M, V28R, F29I, T58F, G59R, Y60V, G61A
VL: B9 VL with D28M, S29E, A30P, Y31L
notes: as for B9
For the molecule B11, the figures for the Kd in assay [4] and in assay [6] were 24 pM and 51 pM, respectively. In addition, the “IC50 (read off the curve)” value in assay [11] was roughly 700 pM.
